Assay results from publication PMC4585563.

Molecular target: CTNNBL1^Q238A (human) (UniProt Q8WYA6)
Assay: SEC; Superdex 200 10/300, 500 μl of 2 mg/ml protein, 0.5 ml/min, 40 mM Tris-HCl pH 8.0, 150 mM NaCl; molecular weight from calibration standards

## CTNNBL1^Q238A (from UniProt Q8WYA6 77-563) (domain or fragment)
  stoichiometry N: 2
